Measured values published in US20180057596A1 (AstraZeneca / MedImmune, published 2018).
Changes are numbered by the printed parent chain. Where “and” joins values, the source holds several entries; their conditions need not be identical. Equal values may be shown once. Read-outs that look alike come from different tables or passages of the source.

T1: human IL-4Rα on TF-1 cells (human, UniProt P24394 26-825)
T1 sequence (looked up): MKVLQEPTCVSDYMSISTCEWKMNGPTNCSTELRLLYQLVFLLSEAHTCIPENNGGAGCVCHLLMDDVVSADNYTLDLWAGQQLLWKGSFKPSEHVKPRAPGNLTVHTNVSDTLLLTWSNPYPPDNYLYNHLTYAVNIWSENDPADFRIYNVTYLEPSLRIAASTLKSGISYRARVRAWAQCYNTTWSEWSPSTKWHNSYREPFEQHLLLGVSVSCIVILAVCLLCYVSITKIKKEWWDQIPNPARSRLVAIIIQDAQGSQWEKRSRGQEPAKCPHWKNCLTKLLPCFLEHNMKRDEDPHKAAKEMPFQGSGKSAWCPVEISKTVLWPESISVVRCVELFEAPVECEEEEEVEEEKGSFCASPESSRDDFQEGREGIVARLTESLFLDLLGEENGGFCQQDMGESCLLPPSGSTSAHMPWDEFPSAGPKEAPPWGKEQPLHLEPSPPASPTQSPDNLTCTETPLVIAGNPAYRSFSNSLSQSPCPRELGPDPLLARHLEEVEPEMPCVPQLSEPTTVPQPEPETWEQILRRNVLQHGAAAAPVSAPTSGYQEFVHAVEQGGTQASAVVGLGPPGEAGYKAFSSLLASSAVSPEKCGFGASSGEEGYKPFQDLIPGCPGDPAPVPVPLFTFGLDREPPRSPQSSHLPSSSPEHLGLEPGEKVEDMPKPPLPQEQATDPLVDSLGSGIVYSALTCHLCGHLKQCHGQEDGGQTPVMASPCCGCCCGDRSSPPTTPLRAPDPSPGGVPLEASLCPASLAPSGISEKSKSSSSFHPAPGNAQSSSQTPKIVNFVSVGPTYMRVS

T2: cynomolgus IL-4Rα HIS FLAG (cynomolgus)
T2 construct: also called Cyno IL4Rα HIS FLAG; not shown: HIS and FLAG tags and any vector-encoded linker of the cynomolgus HIS FLAG construct
T2 chain: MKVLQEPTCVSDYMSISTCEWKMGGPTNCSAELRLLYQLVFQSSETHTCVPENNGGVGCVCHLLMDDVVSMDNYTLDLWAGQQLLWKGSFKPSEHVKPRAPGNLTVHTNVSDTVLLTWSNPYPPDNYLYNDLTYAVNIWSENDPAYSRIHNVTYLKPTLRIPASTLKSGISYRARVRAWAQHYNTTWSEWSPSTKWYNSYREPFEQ

T3: human IL-4Rα HIS FLAG (in house HEK-EBNA derived) (human, biotinylated where used as the labelled partner in the DELFIA assay)
T3 construct: also called HuIL-4Rα; Human IL4-Rα/FLAG/HIS tag
T3 chain: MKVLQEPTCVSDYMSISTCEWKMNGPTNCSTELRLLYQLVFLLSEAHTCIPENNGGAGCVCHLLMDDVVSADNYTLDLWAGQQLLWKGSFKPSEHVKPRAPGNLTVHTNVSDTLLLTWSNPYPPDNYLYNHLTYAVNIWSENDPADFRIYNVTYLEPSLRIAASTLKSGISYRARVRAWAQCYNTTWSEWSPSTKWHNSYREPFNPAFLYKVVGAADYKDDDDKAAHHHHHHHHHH

B1: Antibody 1 IgG (antibody, V domains shown)
VH: QVQLVQSGAEVKKPGASVKVSCKASGYAFTSYYMHWARQAPGQGLEWMGIINPSGGSTSYAQKFQGRVTMTRDTSTSTVYMELSSLRSEDTAVYYCARGKWWLDYWGKGTLVTVSS
VL: QSVLTQPPSVSAAPGQKVTISCSGGSSNIGNSYVSWYQQLPGTAPKLLIYDNNKRPSGIPDRFSGSKSGTSATLAITGLQTGDEADYYCGTWDTSLSANYVFGTGTKLTVL
B2: Antibody 19 IgG (antibody, V domains shown)
VH: B1 VH with L103W, D104Q, Y105H
VL: B1 VL with L96T, S97T, A98Y, N99H, Y100P, V101I
B3: Antibody 15 IgG (antibody, V domains shown)
VH: B1 VH with D104Y, Y105N
VL: B1 VL with L96T, S97H, A98R, N99H, Y100P, V101L
B4: Antibody 42 IgG (antibody, V domains shown)
VH: B1 VH with M48V, E89G, W101Y, L103M, D104Y, Y105D
VL: B1 VL with S2A, Q39R, T43A, L96T, S97G, A98W, N99E, Y100W, V101P
B5: Antibody 14 IgG (antibody, V domains shown)
VH: B1 VH with D104Y, Y105N
VL: B1 VL with L96P, S97P, A98T, N99K, Y100P, V101L
B6: Antibody 24 (PGL) IgG (antibody, V domains shown)
VH: B1 VH with A37V, S54R, W101Y, L103M, D104Y, Y105D
VL: B1 VL with A75G, Y88F, L96T, S97V, A98W, N99E, Y100W, V101P
B7: Antibody 31 IgG (antibody, V domains shown)
VH: B1 VH with W101Y, L103M, D104Y, Y105D
VL: B1 VL with N28S, D93A, L96P, S97V, A98W, N99E, Y100W, V101P
B8: Antibody 20 IgG (antibody, V domains shown)
VH: B1 VH with W101Y, L103M, D104Y, Y105D
VL: B1 VL with L96T, S97V, A98W, N99E, Y100W, V101P
B9: Antibody 24 IgG (antibody, V domains shown)
VH: B1 VH with S54R, W101Y, L103M, D104Y, Y105D
VL: B1 VL with Y88F, L96T, S97V, A98W, N99E, Y100W, V101P
B10: Antibody 4 IgG (antibody, V domains shown)
VH: B1 VH with D104Y, Y105N
VL: B1 VL with L96S, S97P, A98P, N99Q, Y100P, V101I
B11: Antibody 16 IgG (antibody, V domains shown)
VH: B1 VH with D104Y, Y105N
VL: B1 VL with L96T, S97T, A98Y, N99H, Y100P, V101I
B12: Antibody 7 IgG (antibody, V domains shown)
VH: B1 VH with L103W, D104Q
VL: B1 VL with L96S, S97P, A98P, N99Q, Y100P, V101I
B13: Antibody 13 IgG (antibody, V domains shown)
VH: B1 VH with D104Y, Y105D
VL: B1 VL with L96T, S97T, A98L, N99Q, Y100P, V101L
B14: Antibody 21 IgG (antibody, V domains shown)
VH: B1 VH with T58A, W101Y, L103M, D104Y, Y105D
VL: B1 VL with D86V, Y88F, L96T, S97V, A98W, N99E, Y100W, V101P
B15: Antibody 25 IgG (antibody, V domains shown)
VH: B1 VH with S54R, T58A, T69S, W101Y, L103M, D104Y, Y105D
VL: B1 VL with S71T, D93V, L96T, S97V, A98W, N99E, Y100W, V101P
B16: Antibody 2 IgG (antibody, V domains shown)
VH: B1 VH with D104Y, Y105N
VL: B1 VL with L96Q, S97P, A98P, Y100P, V101L
B17: Antibody 9 IgG (antibody, V domains shown)
VH: B1 VH with D104Y, Y105N
VL: B1 VL with L96T, S97T, A98M, N99Y, Y100P, V101L
B18: Antibody 37 IgG (antibody, V domains shown)
VH: B1 VH with S54R, T69A, S88P, W101Y, L103M, D104Y, Y105D
VL: B1 VL with S26G, N28S, I59V, L96P, S97V, A98W, N99E, Y100W, V101P

Experiments:
[1] = molecular target: T1, human IL-4Rα on TF-1 cells; test: cell-based or functional assay
[2] = molecular target: T1, human IL-4Rα on TF-1 cells; test: cell-based or functional assay; remark: listed apart in the source
[3] = molecular target: T1, human IL-4Rα on TF-1 cells; test: cell-based or functional assay; remark: listed apart in the source
[4] = molecular target: T2, cynomolgus IL-4Rα HIS FLAG; test: SPR (BIAcore 2000), IgG captured on Protein G', receptor as analyte, 1:1 Langmuir
Experimental: (§1) In brief, Protein G′ (Sigma Aldrich, P4689) was covalently coupled to the surface of a CM5 sensor chip using standard amine coupling reagents according to manufacturer's instructions (BIAcore). This Protein G′ surface was used to capture a constant amount of purified anti-IL4R• antibodies or isotype control via the Fc domain. Human or cynomolgus IL-4R• HIS FLAG prepared in HBS-EP buffer (BIAcore AB), at a range of concentrations, between 100 nM and 0.2 nM, were passed over the sensor chip surface. […] The resulting sensorgrams were evaluated using BIA evaluation 4.1 software and fitted to 1:1 Langmuir binding model, to provide the relative binding data. The experiments were performed over the course of at least three separate days to calculate an average monovalent affinity.

[5] = molecular target: T3, human IL-4Rα HIS FLAG (in house …); test: as above
Experimental: as §1

[6] = molecular target: T3, human IL-4Rα HIS FLAG (in house …); test: SPR (BIAcore 2000), value in parentheses under the mean, taken as a single determination; single determination, one of three separate days; the mean is 0.255 nM
Experimental: as §1

[7] = molecular target: T2, cynomolgus IL-4Rα HIS FLAG; test: SPR (BIAcore 2000), value in parentheses under the mean, taken as a single determination
Experimental: as §1

[8] = molecular target: T3, human IL-4Rα HIS FLAG (in house …); test: as above
Experimental: as §1

Binder	IC50 (pM), IL-4 induced TF-1 cell proliferation [2] [pM]	IC50 (pM), IL-13 induced TF-1 cell proliferation [2] [pM]	also measured
B1	–	–	IC50 geomean, IL-4 induced TF-1 cell proliferation [1]: 38 nM; IC50 geomean, IL-13 induced TF-1 cell proliferation [1]: 18 nM
B2	7.6	22.4	–
B3	2.8	17.8	–
B4	20.2	42.7	–
B5	3.8	27.2	–
B6	–	–	IC50 (pM), IL-4 induced TF-1 cell proliferation [3]: 15.3 pM; IC50 (pM), IL-13 induced TF-1 cell proliferation [3]: 55 pM
B7	20.2	44.2	–
B8	31.1	66.1	Kd [4]: 27.7 nM; koff [4]: 0.00452 s⁻¹; kon [4]: 163000 M⁻¹ s⁻¹; Kd [5]: 1.25 nM; koff [5]: 0.000873 s⁻¹; kon [5]: 698000 M⁻¹ s⁻¹
B9	12.6	30.2	–
B10	20.9	58.1	–
B11	6.2	19.5	–
B12	12.3	42.7	–
B13	15.7	24.6	–
B14	19.7	34.7	–
B15	9.8	23.2	–
B16	41.7	171	Kd [4]: 47.5 nM; koff [4]: 0.00459 s⁻¹; kon [4]: 96700 M⁻¹ s⁻¹; Kd [5]: 4.51 nM; koff [5]: 0.00294 s⁻¹; kon [5]: 651000 M⁻¹ s⁻¹
B17	8.88	20.4	Kd [4]: 124 nM; koff [4]: 0.0163 s⁻¹; kon [4]: 131000 M⁻¹ s⁻¹; Kd [5]: 0.422 nM; koff [5]: 0.000229 s⁻¹; kon [5]: 543000 M⁻¹ s⁻¹
B18	10.4	22.1	Kd [4]: 2.97 nM; koff [4]: 0.000688 s⁻¹; kon [4]: 243000 M⁻¹ s⁻¹; Kd [5]: 0.255 nM; koff [5]: 0.000162 s⁻¹; kon [5]: 640000 M⁻¹ s⁻¹; Kd [6]: 0.313 nM; Kd [7]: 2.59 nM and 2.36 nM and 3.96 nM; Kd [8]: 0.25 nM and 0.203 nM
